Test results as given in article PMC4576865 (The Journal of Cell Biology, 2015).

Target: the molecule itself
Experiment: native gel or EMSA

B1: Ugo1 precursor, 35S-labeled (natural protein, S. cerevisiae, UniProt Q03327 1-502, looked up)
chain: MNNNNVTEATSRAQIRPYYDPDSFNAGYSAVFKPDEGVVDPHGYTIASKLNVINSSPTTKRMANALFKSSPMKKLSNSVNDGLSLEGSNGEITGLNNFEWAELVNIQKWRKIFEQLLDMFFRKYFQLLIQQPFDVARLLIQVGEFKIFKTTVDTNKPQAPIILRDEEGDGAAREGEEDAYDEEEIDFFPIERKIAEANSTAPIMAEETDHSHHEPTDISLTIAPQSLHTIDVINALFDQEGIRGLWKANNTTFIYNFLSLSIDTWFTGLLSSFLGVPDPYFMEVINSPDISKSFILALGAGVFTSIILLPVDLIRTRLIVTSFKKKKNVKTDGKNMVTNTRSLRQLIRCWSWRKNGVSIPLDMWSLTILQSINNSFFNKLFDLVIYNQFHIEKYSQTVMYNTMKFFSKSLELFIKLPLENLLRRCQLNYLLNDQRLSFKVDSTELIVKPKKYNGIWDVIRNNSNTNRGQLWNGWKVGVISLICGYGLQMMNKVDINMEQEKF
modifications: [35S]methionine
stoichiometry N: 2
